In the DeepSol protein solubility set:

Test: soluble on expression in E. coli; label from the status in PepcDB or PDB records

| Sequence | soluble on expression in E. coli |
| --- | --- |
| MSLKRFIPAWYSRNRWWESTSRPFYLKKQYTDFDDMISLMTMHSSNNVDYQLIVLSFSPYLRTFLHRYDLYESHYWSVFDEIQGIGHQTPQAIDYRDLSWPEGTEFIFTPFQIQAITGDNTFSKIHFSQEGYLMWVEDYKYSTIQRRFVFDDRGFISAVRTYTPDGDNNKKHYFSKDGEEIFVEDLNVNTVTINKNFQSKFKKVTYSSMAELIEEKFQSYVERELNEDDSVIVASDERHNSMMARTIDAPSLCFSIFTERNKVVTQDLYDSISRAYYCLVDTQANQNMIEHYAGLNMNNFNLLRVTPFDAQSLPNQSSQLYDTYIGLWIDGLDEIEIREIVNSLFQYIQHKDGYKLKILTKSRDNLTENLIDEVAHLNDLYHQEKKEISDVIEDVIQNKKETIIDIETVPFEEDLVSVISKLRVVVDLSLEPKLFLQICCIGAGIPQINKKRTDYVKHMHNGYIIDDISQTVESLDYFLAHLKNWNYSYAYSMRLTDDFSSINIIHQINQLFKGDVSSGTEGHHHHHH | soluble |
| MSLKRTEISSLGEFGLIRHLTDCVRLKNPGTLKGIGDDAAVISFDEGMKALVTTDMLLEGIHFDLTYTPLKHLGYKSAIVNFSDIYAMNGTPRQLTVSIGVSARFSVEDIEQIYQGILTACDAYGVDLVGGDTSASLTGLCLSLTCIGEAREEEIVYRSGAKPTDLICVSGDLGAAYMGLQLLEREKAVYQGEKDFAPDFAGHEYILERQLKPEARKDIVEELRSAGIKPTAMMDISDGLSSELLHIAHAGKVGVRIYDDKLPIDYQTAAMAEEFNMNLSTAALNGGEDYELLFTVPLTRLDDIQRIEGIHLIGHITEEADGHLLVARDGTEITLVAQGWNAAKALNGEGHHHHHH | soluble |
| MSLKSAKDVQTITKITIDFGGEEIFLDFDEVTKHYLNQPLSAKTVFALTKELTQVLYNAGYVTSAIGLKSSKIKNGEVEFVVLWGKVNDILVEEQQASLFKDKAMLFVLPNLKGKVLRIYDVDQLIEILNTGNKTAKVNVIAANEKSMSNLSIERHRTSYPQVSLSLNNSGEGSNAEGRNQATLSISWSDLLGTNDRWSFSTGYRIYKDRQANRQQNYSLSYTQPFSFSTLDIKLSYSGYKKQLRGIHTHGSSGETKQASFKLSHTLLRNKDMILSLYGELEFKRRLSYFGDIRIGKYHNNKLNIGLSYVTNLGHGKLYSDLSYSNGLRWFNANHSAYNSHRDKTLRLVSGSINWQRPFVFFNRGMSYQFRLGAQYGFDSLYGENQFSIGDEYTVRGFKGGAGSGDRGFYISQTVTIPFYPQKSYLSYINPFLGIDIGKVHAKRPHHVVDTFAGFAFGVKAQIKSLALSLTYAKPINGVGTFEESNKKSVFYFTGSVSFEGHHHHHH | not soluble |
| MSLKTIHITHPHHLIKEEQAKSVMALGYFDGVHLGHQKVIGTAKQIAEEKGLTLAVMTFHPHPSHVLGRDKEPKDLITPLEDKINQIEQLGTEVLYVVKFNEVFASLSPKQFIDQYIIGLNVQHAVAGFDFTYGKYGKGTMKTMPDDLDGKAGCTMVEKLTEQDKKISSSYIRTALQNGDVELANVLLGQPYFIKGIVIHGDKRGRTIGFPTANVGLNNSYIVPPTGVYAVKAEVNGEVYNGVCNIGYKPTFYEKRPEQPSIEVNLFDFNQEVYGAAIKIEWYKRIRSERKFNGIKELTEQIEKDKQEAIRYFSNLRKEGGSHHHHHH | soluble |
| MSLKTLENHNRIKVTVNGREIEVYDNLTILQALLQEDIHIPHLCYDIRLERSNGNCGLCVVTLISPDGERDVKACQTPIKEGMVICTNTPKLENYRKIRLEQLLSDHNADCVAPCVMTCPANIDIQSYLRHVGNGDFEAAIRVIKERNPFPIVCGRVCPHTCESQCRRNLVDAPVAINYVKRFAADWDMARPEPWTPEKKPPTGKKIAIVGAGPSGLSAAYYSAIKGHDVTVFERQPHPGGMMRYGIPEYRLPKAILDKEIEMIKKLGVKIMTEKALGIHIRLEDLSKDFDAVYLAIGSWQATPMHIEGEKLDGVWAGINYLEQVAKNVDIPLGDNVVVIGGGNTAIDCARTALRKGAKSVKLVYRCTREEMPAAPYEVEEAIHEGVEMIFLMAPTKIIVKDGKKKLVCIRMQLGEPDRSGRRRPVPIEGSEVEIDADTIIGAIGQSTNTQFLYNDLPVKLNKWGDIEVNGKTLQTSEYNIFAGGDCVTGPATVIEGHHHHHH | soluble |
| MSLKTWFITGTSSGFGKELATIVARQSDTQLIAAARHTDDLAYLDVFDATRIEKVSIDVTNESQIKTGVAQAIQRFGTIDVLVNNAGLGYFSTIEESDMAKVRYMFEVNVMGLANVTRTVLPTMRAHHAGIIINLSSALALTTLPTMGFYSATKYAVEGYSDTLRQEVKDLGIQIMTVEPSGARTQWSGRSSQKMVPTIADYAAFSDAITTVSDSVTQAPGNPHRIAQVMFDQANLAEVPAHLPLGEFAYQGGLANLQSIVSEIKSREDLSLSTDEGHHHHHH | not soluble |
| MSLKVLAITGYKPFELGIFKQDDKALYYIKKAIKNRLIAFLDEGLEWILISGQLGVELWAAEAAYDLQEEYPDLKVAVITPFYEQEKNWKEPNKEQYEAVLAQADYEASLTHRPYESPLQFKQKNQFFIDKSDGLLLLYDPEKEGSPKYMLGTAEKRREQDGYPIYFITMDDLRVTVEEDSYEGHHHHHH | soluble |
| MSLKYDWILFDADETLFHFDAFKGMQLMFARKGVEFTEQDFHQYQEVNKPLWVDYQNGDITAAQLKHTRFAGWAEKLNTTTDELNSAFLQAMADICTLLPGAMELMQALQGKARLGIITNGFTELQDVRLAKTGMTDFFDQIVISEEVGIAKPDAGIFAHALERMGNPTKSRVLMVGDNPHSDILGGLNFGIETCWLNVHQHPKPDGITPHYEVTSLHELREILLAEGHHHHHH | soluble |
| MSLKYVDEFREPEKAEALCREITKLSHQLEKPIKIMEVCGGHTHSIFKYGIEEILPQTIELIHGPGCPVCVMPKGRLDDAIAISQNHNVIFATFGDAMRVPGSKTSLLQARAQGADIRMVYSPLDSLQIAKDHPDREVVFFALGFETTAPSTGFTIVQAAAEEIHNFSMFSNHVLVIPALKALLDNPDLQLDGFVGPGHVSMVIGSDPYQFISQQYNKPIVVSGFEPLDILQSIWMLLQQIVENRCEVENQYNRIVQKSGNTVALQAINKVFAVRDSFDWRGLGDIPYSGLKIKPEYAQFDAELKFTIPNLKVADHKACKCGEILKGVLKPWECKVFGTACTPETPIGTCMVSSEGACAAYYKYGRLSTIAKRTITQKPKITQEPLPACGFSLDEGHHHHHH | not soluble |
| MSLLACCAIYSPVRCAFPYTETERRFTCKRRIFRIILTLCGRENMKIRALLVAMSVATVLTGCQNMDSNGLLSSGAEAFQAYSLSDAQVKTLSDQACQEMDSKATIAPANSEYAKRLTTIANALGNNINGQPVNYKVYMAKDVNAFAMANGCIRVYSGLMDMMTDNEVEAVIGHEMGHVALGHVKKGMQVALGTNAVRVAAASAGGIVGSLSQSQLGNLGEKLVNSQFSQRQEAEADDYSYDLLRQRGISPAGLATSFEKLAKLEEGRQSSMFDDHPASAERAQHIRDRMSADGIKEGGSHHHHHH | soluble |
| MSLLGTGYLPDGTHMPGANPNLNIAAFLKENHIDLHTTVYPGGGLDPYTSVEFLNIVSKHCKTVFSNANEVLNTIPNSIYVPGIINTEFYHYNQKVSTKPIQMIFAAHNAERKGFPLLAQAFNKLDDQFHLHIVGNWENSLHLLTNNNYTFWGMLDLEKLKQLYEQSHVFISCSTKDKFAIDGFPTTAAADAMATGCILVSTNHRNDNRILKPGEDYLKIEADSNSILSNLFWIKMNFEKALEIGKSGAIKMDKYFNYKTNVNFKLSHIF | not soluble |
| MSLLIRELETNDLDNFPEIDDSFIVNARLMLSLSKVNRRIEYTVEDVPSYEKSYLQNDNEELVYNEYINKPNQIIYIALLHNQIIGFIVLKKNWNNYAYIEDITVDKKYRTLGVGKRLIAQAKQWAKEGNMPGIMLETQNNNVAACKFYEKCGFVIGGFDFLVYKGLNMTSDEVAIYWYLHFDS | not soluble |
| MSLLKLFDAHFHIIDYRFPLIANQSYLPPEFTVEDYLQRAKPLNICGGAVVSGSFQAFDQTYLLTALSVLGPNFVGVTQLPATVSDEEIIQLNQHGIRAVRFNLKRGGSESIHQLKYFAHRIYEMVRWHVEIYVDSKELGDLTNLLLELPAVSIDHLGLSQSGFSELLHLVEHGIKIKASGFGRVDFDVKKALQTIAQISPDALLFGTDLPSTRAPLPFLDSDIQLIQDLFDEELTEKILYRNACNFYSKNEGHHHHHH | soluble |
